Data published in the RNAGym collection of RNA variant scans (doi:10.1093/nar/gkz1192).

B1: CPEB3 Ribozyme (parent)
chain: UAACAGGGGGCCACAGCAGAAGCGUUCACGUCGCAGCCCCUGUCAGAUUCUGGUGAAUCUGCGAAUUCUGCUGUAUAUCUC

Variants of: B1
Experiment: self-cleavage, relative activity (ratio to wild type); higher = more cleavage; in vitro, sequencing
Summary of the method: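 Barcoded CPEB3 ribozyme mutants, produced by rounds of error-prone PCR, self-cleaved while being transcribed with T7 RNA polymerase for 5 hours at 37°C and during a subsequent 15 min DNase I step before EDTA was added. Sequencing of template-switched cDNA on Illumina gave cleaved and total reads, and DNA sequencing assigned barcodes to variants. Each variant's relative activity is its cleaved/total read fraction divided by the unmutated ribozyme's fraction, averaged across three batches. A variant needed a minimum of 5 reads.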

Variant	self-cleavage
UAGCAGGGGGCCACAGCAGAAGCGUUCACGUCGAAGCCCCUGUCAGAUUCUGGUGAAUCUGCGAAUUCUGCUGUAUAUCUC [A3G C34A]	0.2
UAGCAGGGGGCCACAGCAGAAGCGUUCACGUCGGAGCCCCUGUCAGAUUCUGGUGAAUCUGCGAAUUCUGCUGUAUAUCUC [A3G C34G]	0.43
UAGCAGGGGGCCACAGCAGAAGCGUUCACGUCGUAGCCCCUGUCAGAUUCUGGUGAAUCUGCGAAUUCUGCUGUAUAUCUC [A3G C34U]	0.25
UAGCAGGGGGCCACAGCAGAAGCGUUCACGUCGCAGACCCUGUCAGAUUCUGGUGAAUCUGCGAAUUCUGCUGUAUAUCUC [A3G C37A]	0.36
UAGCAGGGGGCCACAGCAGAAGCGUUCACGUCGCAGUCCCUGUCAGAUUCUGGUGAAUCUGCGAAUUCUGCUGUAUAUCUC [A3G C37U]	0.85
UAGCAGGGGGCCACAGCAGAAGCGUUCACGUCGCAGCGCCUGUCAGAUUCUGGUGAAUCUGCGAAUUCUGCUGUAUAUCUC [A3G C38G]	1.02
UAGCAGGGGGCCACAGCAGAAGCGUUCACGUCGCAGCUCCUGUCAGAUUCUGGUGAAUCUGCGAAUUCUGCUGUAUAUCUC [A3G C38U]	0.83
UAGCAGGGGGCCACAGCAGAAGCGUUCACGUCGCAGCCACUGUCAGAUUCUGGUGAAUCUGCGAAUUCUGCUGUAUAUCUC [A3G C39A]	0.05
UAGCAGGGGGCCACAGCAGAAGCGUUCACGUCGCAGCCGCUGUCAGAUUCUGGUGAAUCUGCGAAUUCUGCUGUAUAUCUC [A3G C39G]	0.34
UAGCAGGGGGCCACAGCAGAAGCGUUCACGUCGCAGCCUCUGUCAGAUUCUGGUGAAUCUGCGAAUUCUGCUGUAUAUCUC [A3G C39U]	0.64
UAGCAGGGGGCCACAGCAGAAGCGUUCACGUCGCAGCCCAUGUCAGAUUCUGGUGAAUCUGCGAAUUCUGCUGUAUAUCUC [A3G C40A]	0.32
UAGCAGGGGGCCACAGCAGAAGCGUUCACGUCGCAGCCCGUGUCAGAUUCUGGUGAAUCUGCGAAUUCUGCUGUAUAUCUC [A3G C40G]	0.5
UAGCAGGGGGCCACAGCAGAAGCGUUCACGUCGCAGCCCUUGUCAGAUUCUGGUGAAUCUGCGAAUUCUGCUGUAUAUCUC [A3G C40U]	0.64
UAGCAGGGGGCCACAGCAGAAGCGUUCACGUCGCAGCCCCUGUAAGAUUCUGGUGAAUCUGCGAAUUCUGCUGUAUAUCUC [A3G C44A]	0.42
UAGCAGGGGGCCACAGCAGAAGCGUUCACGUCGCAGCCCCUGUCAGAUUAUGGUGAAUCUGCGAAUUCUGCUGUAUAUCUC [A3G C50A]	0.82
UAGCAGGGGGCCACAGCAGAAGCGUUCACGUCGCAGCCCCUGUCAGAUUGUGGUGAAUCUGCGAAUUCUGCUGUAUAUCUC [A3G C50G]	0.8
UAGCAGGGGGCCACAGCAGAAGCGUUCACGUCGCAGCCCCUGUCAGAUUUUGGUGAAUCUGCGAAUUCUGCUGUAUAUCUC [A3G C50U]	0.94

Variant	self-cleavage
UAGCAGGGGGCCACAGCAGAAGCGUUCACGUCGCAGCCCCUGUCAGAUUCUGGUGAAUAUGCGAAUUCUGCUGUAUAUCUC [A3G C59A]	0.62
UAGCAGGGGGCCACAGCAGAAGCGUUCACGUCGCAGCCCCUGUCAGAUUCUGGUGAAUUUGCGAAUUCUGCUGUAUAUCUC [A3G C59U]	0.74
UAGCAGGGGGCCACAGCAGAAGCGUUCACGUCGCAGCCCCUGUCAGAUUCUGGUGAAUCUGAGAAUUCUGCUGUAUAUCUC [A3G C62A]	0.59
UAGCAGGGGGCCACAGCAGAAGCGUUCACGUCGCAGCCCCUGUCAGAUUCUGGUGAAUCUGGGAAUUCUGCUGUAUAUCUC [A3G C62G]	0.32
UAGCAGGGGGCCACAGCAGAAGCGUUCACGUCGCAGCCCCUGUCAGAUUCUGGUGAAUCUGUGAAUUCUGCUGUAUAUCUC [A3G C62U]	0.39
UAGCAGGGGGCCACAGCAGAAGCGUUCACGUCGCAGCCCCUGUCAGAUUCUGGUGAAUCUGCGAAUUAUGCUGUAUAUCUC [A3G C68A]	0.46
UAGCAGGGGGCCACAGCAGAAGCGUUCACGUCGCAGCCCCUGUCAGAUUCUGGUGAAUCUGCGAAUUGUGCUGUAUAUCUC [A3G C68G]	0.47
UAGCAGGGGGCCACAGCAGAAGCGUUCACGUCGCAGCCCCUGUCAGAUUCUGGUGAAUCUGCGAAUUUUGCUGUAUAUCUC [A3G C68U]	0.79
UAGCAGGGGGCCACAGCAGAAGCGUUCACGUCGCAGCCCCUGUCAGAUUCUGGUGAAUCUGCGAAUUCUGAUGUAUAUCUC [A3G C71A]	0.27
UAGCAGGGGGCCACAGCAGAAGCGUUCACGUCGCAGCCCCUGUCAGAUUCUGGUGAAUCUGCGAAUUCUGGUGUAUAUCUC [A3G C71G]	0.57
UAGCAGGGGGCCACAGCAGAAGCGUUCACGUCGCAGCCCCUGUCAGAUUCUGGUGAAUCUGCGAAUUCUGUUGUAUAUCUC [A3G C71U]	0.64
UAGCAGGGGGCCACAGCAGAAGCGUUCACGUCGCAGCCCCUGUCAGAUUCUGGUGAAUCUGCGAAUUCUGCUGUAUAUAUC [A3G C79A]	1.05
UAGCAGGGGGCCACAGCAGAAGCGUUCACGUCGCAGCCCCUGUCAGAUUCUGGUGAAUCUGCGAAUUCUGCUGUAUAUUUC [A3G C79U]	1
UAGCAGGGGGCCACAGCAGAAGCGUUCACGUCGCAGCCCCUGUCAGAUUCUGGUGAAUCUGCGAAUUCUGCUGUAUAUCUG [A3G C81G]	1.17
UAGCAAGGGGCCACAGCAGAAGCGUUCACGUCGCAGCCCCUGUCAGAUUCUGGUGAAUCUGCGAAUUCUGCUGUAUAUCUC [A3G G6A]	0.59
UAGCACGGGGCCACAGCAGAAGCGUUCACGUCGCAGCCCCUGUCAGAUUCUGGUGAAUCUGCGAAUUCUGCUGUAUAUCUC [A3G G6C]	0.77
UAGCAUGGGGCCACAGCAGAAGCGUUCACGUCGCAGCCCCUGUCAGAUUCUGGUGAAUCUGCGAAUUCUGCUGUAUAUCUC [A3G G6U]	0.57
